Results from publication PMC3194004.
Like-named read-outs stand apart in the source and are kept apart here.

Assays:
[1] = target: HIV-1 full-length wild-type capsid protein (CA), residues 1-231 (HIV-1) (UniProt P03347); assay: dynamic light scattering
[2] = target: HIV-1 full-length wild-type capsid protein (CA), residues 1-231 (HIV-1) (UniProt P03347); assay: dynamic light scattering; remark: listed apart in the source

In the case of “HIV-1 full-length wild-type capsid protein (CA), residues 1-231 (from UniProt P03347 133-363) (natural protein)”, the stoichiometry N [1] is reported as 2 and the stoichiometry N [2] is reported as 2.
